This is an account of results in PMC6685639.

For the assay, the target named is GST-PfPP1c (P. falciparum).

In the case of “6-His PbGEXP15 (4–590) (domain or fragment)”, the pNPP dephosphorylation activity of recombinant PfPP1c (40 pmol, without GST) pre-incubated 30 min at 37°C with different amounts of PbGEXP15 (4–590); concentration-dependent increase was 2 fold.
For the substance “6-His PbGEXP15 (4–178) (domain or fragment)”, the pNPP dephosphorylation activity of recombinant PfPP1c (40 pmol, without GST) pre-incubated 30 min at 37°C with different amounts of PbGEXP15 (4–178); concentration-dependent increase stood at 2 fold.
